Assay results published in patent US20240189392A1.

Key:
Experiment in all cases: cell-based or functional assay
[1] = biological target: human RXFP3 (human) (UniProt Q9NSD7)
[2] = biological target: human RXFP4 (human) (UniProt Q8TDU9)
[3] = biological target: human RXFP2 (human) (UniProt Q8WXD0)
Sequence of human RXFP2 (human) (Q8WXD0 whole entry): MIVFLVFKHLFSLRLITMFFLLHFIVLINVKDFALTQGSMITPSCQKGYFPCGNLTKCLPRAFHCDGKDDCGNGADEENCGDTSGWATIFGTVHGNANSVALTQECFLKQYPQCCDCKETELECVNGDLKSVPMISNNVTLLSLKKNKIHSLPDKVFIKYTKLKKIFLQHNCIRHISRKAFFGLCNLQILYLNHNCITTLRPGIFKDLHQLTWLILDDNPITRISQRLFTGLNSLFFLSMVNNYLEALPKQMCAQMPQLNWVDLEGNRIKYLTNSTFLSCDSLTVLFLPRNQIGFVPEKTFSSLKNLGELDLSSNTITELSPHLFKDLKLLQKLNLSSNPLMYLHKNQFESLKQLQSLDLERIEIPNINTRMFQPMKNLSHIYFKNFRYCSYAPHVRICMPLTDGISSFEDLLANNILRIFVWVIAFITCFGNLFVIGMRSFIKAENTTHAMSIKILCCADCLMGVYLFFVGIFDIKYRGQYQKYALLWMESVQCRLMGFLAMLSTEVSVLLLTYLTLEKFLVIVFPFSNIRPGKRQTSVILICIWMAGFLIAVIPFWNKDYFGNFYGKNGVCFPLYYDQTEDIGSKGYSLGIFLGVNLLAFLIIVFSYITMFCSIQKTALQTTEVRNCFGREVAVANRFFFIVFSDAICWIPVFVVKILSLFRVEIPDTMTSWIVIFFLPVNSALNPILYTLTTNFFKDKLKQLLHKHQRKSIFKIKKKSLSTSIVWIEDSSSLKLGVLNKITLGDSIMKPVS

Sequence of human RXFP4 (human) (Q8TDU9 whole entry): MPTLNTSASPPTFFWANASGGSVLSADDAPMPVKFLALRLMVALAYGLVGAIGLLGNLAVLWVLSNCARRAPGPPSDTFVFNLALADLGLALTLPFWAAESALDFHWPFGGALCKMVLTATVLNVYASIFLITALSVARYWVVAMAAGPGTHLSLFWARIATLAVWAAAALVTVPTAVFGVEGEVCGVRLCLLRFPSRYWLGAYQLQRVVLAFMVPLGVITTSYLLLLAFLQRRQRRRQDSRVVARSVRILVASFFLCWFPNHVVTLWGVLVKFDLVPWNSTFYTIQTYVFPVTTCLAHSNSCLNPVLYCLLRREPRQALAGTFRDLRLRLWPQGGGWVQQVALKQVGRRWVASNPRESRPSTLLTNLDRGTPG
Sequence of human RXFP3 (human) (Q9NSD7 whole entry): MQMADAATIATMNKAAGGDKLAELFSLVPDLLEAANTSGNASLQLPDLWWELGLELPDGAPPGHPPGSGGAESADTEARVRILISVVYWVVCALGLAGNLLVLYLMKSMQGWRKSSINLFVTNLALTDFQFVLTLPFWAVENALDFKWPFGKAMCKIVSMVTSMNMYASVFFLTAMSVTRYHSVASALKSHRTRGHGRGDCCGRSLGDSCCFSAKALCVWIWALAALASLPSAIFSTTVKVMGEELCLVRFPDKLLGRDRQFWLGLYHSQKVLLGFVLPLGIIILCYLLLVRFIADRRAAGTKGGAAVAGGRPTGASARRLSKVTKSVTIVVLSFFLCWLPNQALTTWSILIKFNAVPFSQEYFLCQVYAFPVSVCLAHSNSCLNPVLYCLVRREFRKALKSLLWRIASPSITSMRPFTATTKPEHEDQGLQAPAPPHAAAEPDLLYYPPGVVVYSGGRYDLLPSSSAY

Row | Substance | cAMP Assay EC50 (nM), inhibition of forskolin-induced cAMP, human RXFP3/CHO-K1 cells [1] [nM] | cAMP Assay EC50 (nM), inhibition of forskolin-induced cAMP, human RXFP4/CHO-K1 cells [2] [nM] | maximal inhibition of forskolin-induced cAMP, human RXFP4/CHO-K1 cells [2] [%] | cAMP Assay EC50 (nM), human RXFP2/CHO-K1 cells [3] [nM]
1 | recombinant human relaxin 3 (H3-RLX) (from UniProt Q8WXF3 26-142) (ligand) | 0.6 | 2.8 | 40 | 
2 | insulin like 3 protein (INSL3) (from UniProt P51460 21-131) (ligand) |  |  |  | 0.46
